The values below come from the nanobody polyreactivity screen of Harvey et al. (2022).

The nature of this data set: yeast display, Sf9 membrane polyspecificity reagent, FACS + sequencing; frameworks hold sequencing errors. An outline of the steps: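 After 36–48 hours of galactose induction, yeast (Saccharomyces cerevisiae BJ5465) displaying a synthetic nanobody library were stained at 4 °C for 1 hour with 10% biotinylated, detergent-solubilized Sf9 membrane reagent. Streptavidin microbeads enriched the stained cells before FACS sorting into low and high (top ~1%) gates on anti-HA and streptavidin fluorescence. Each clone's polyreactivity label reflects its gate of origin.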
For the sequence “QVQLVESGGGLVQAGGSLLLSCAASGSTFPGYAMGWYRQEPGKERELVAAGGSTYYADSVKGRFTISLDNAKNTVYLQMNSLKPEDTAVYYCNARWYLVPIMEYLGQGTQVTVSS”, the “polyreactivity (PSR sort gate)” value is given as “low polyreactivity”.
As to “QVQLVESGGGLVQAGGSLLLSCAASGSTFSGYAMGWYRQAPRKESDLVASINWSGGSTYADSVKGRFTISRDNAKNTVYLQMNSLKPEDTAVYYCARRWRAYLYGGRDYWGQGTQVTVSS”, the “polyreactivity (PSR sort gate)” value is recorded as “low polyreactivity”.
In the case of “QVQLVESGGGLVQAGGSLLLSCAASGSTFYKYAMGWYRQAPGKERELVARNSRGGGSTYYADSVKGRFTISRDNAKNTVYLQMNSLKPEDTAVYYCAAGVRGQNEGYYWGQGTQVTVSS”, the “polyreactivity (PSR sort gate)” value is reported as “high polyreactivity”.
The same measure for “QVQLVESGGGLVQAGGSLLLSCAASGYTFGTYDMGWYRQAPGKERELVAAISIGGSTNYADSVKGRFTISRDNAKNTVYLQMNSLKPEDTAVYYCAAEVNVGTLLLSVIVEDGDYWGQGTQVTVSS”: “low polyreactivity”; for “QVQLVESGGGLVQAGGSLLLSCAASRSTFDTNAMGWYSQAPGKERELVAAIRWSTGNTYYADSVKGRFTISRDNAKKTDYLQKNSLKPEDTAVYYCAAYTGKHYKEGYWGQVTQVTVSS”: “low polyreactivity”; for “QVQLVESGGGLVQAGGSLLLSCSASGRNFRANAMGWYRQAHRKERELVAAITSTGDRTYYADSVKGRFTISRDNAKNTVYLQMNSLKQEDTAVYYCAAENNRYGGYRKYDYWGLGTQVTVSS”: “low polyreactivity”.
As for “QVQLVESGGGLVQAGGSLLLSCSASGRTFPVNAMGWYRKAHGKEREFVAVISSTGTTYYADSVKGRFTISRDNAKNTVYLQMNSLQPVDTAVYYCARRSNRRAYGNRVGVRRTVDYWGQGTQVTVSS”, the “polyreactivity (PSR sort gate)” value was “low polyreactivity”.
Then “QVQLVESGGGLVQAGGSLLLSSAASGRTFSINAMGWYRQAHGKERELVAAITWSGGSTYYADSVKGRFTISRDNAKNTVYLQMNSLKPEDTAVYYCNAGLGKFPVKGGRRYRLDYSGQGTQVTVSS”, with “low polyreactivity”.
Regarding “QVQLVESGGGLVQAGGSLLLSSAASGSIFQPYAMGWYRPAPGKERELVAAISIGDSTNYADSVKGRFTISRDNAKITVYLQMNSLKPEDTAVYYCNTTGEYYDYWGQGTQVTVSS”, the “polyreactivity (PSR sort gate)” value was “low polyreactivity”.
Then “QVQLVESGGGLVQAGGSLPLSCAASGLTFYRYAMGWYREAPGKERELVAAISFSGGSTYYADSVKGRFTISRDIAKYTVYIQMNCLKPEDTAVYYCAASYQGRRYQDRYDYWGQGNQVTVSS”, with “high polyreactivity”.
Then “QVQLVESGGGLVQAGGSLPLSCAASGNTFYNYAMGWYRQAPGKERELVAAISLSGGSTYYADSVKGRFTISRDNAKNTVYLQMNSLKPEDTAVYYCAADIFYYSSSYGYWGQGTQVTVSS”, with “low polyreactivity”; and “QVQLVESGGGLVQAGGSLPLSCAASGRIFRRNAKGWYRPAPGKEREMVAAIRYGGGTTYAHSVKGRFTISRDNAKNTVYLQMNSLKPEDTAVYYCAVGPRASFGYGYWGQGTQVTVSS”, with “high polyreactivity”.
The same measure for “QVQLVESGGGLVQAGGSLPLSCAASGSIFGGNDMGWYRQAPGKERELVAAITSSGGSTYYADSVKGRFTITRDNAKITVYCQMNRLKPEVTAVYYCNADYYGPYRDYGYWGQGTQVTVSS”: “low polyreactivity”; for “QVQLVESGGGLVQAGGSLPLSCAASGSIFYSNAMGWYRQAPGKERELVARISRSGGSTYYADSVKGRFTISRDNAKNTVYLQMNSLKPEDTAVYYCAKTFTRSWGLGGSWGQGTQVTVSS”: “low polyreactivity”; for “QVQLVESGGGLVQAGGSLPLSCAAYGFTFWYYAMGWYRQAPGKERELVAAISTGGRTNYADSVKGRFTISRDNAKNTVYLQMNSLKPEDTAFYYCAADQSYFYLYRYRFDYWGQGTQVTVSS”: “high polyreactivity”.
Turning to “QVQLVESGGGLVQAGGSLPLSSAASGITFRLYALGWYRQAPGKERELVATITSLGGGTYYADSVKGRFTISRDNAKNTVYLQMHCLIPEDTAVYYCAADVSRPPAGFNYWGQGSQVTVSS”, the “polyreactivity (PSR sort gate)” value is listed as “high polyreactivity”.
Consider “QVQLVESGGGLVQAGGSLPLTCAASGSIFAWNDMGWYRQAPGKERELVAAIRESGTGTYADSVKGRFTISRDNAKNNVYLQMKSLKPEDTAVYYGVADEIQFFIYRMEYWGQGTQVTVSS”, for which the “polyreactivity (PSR sort gate)” value is “low polyreactivity”.
Then “QVQLVESGGGLVQAGGSLRCSWAASGFIFTPYAMGWYRQAPGTEREFVATITWSGGSTNYADSVKGRFTISRDNAKNTVYLPMNSLKPDDTAVYYCNADTWSPNDYWGQGTQVTVSS”, with “low polyreactivity”; and “QVQLVESGGGLVQAGGSLRFICAASGFLFRAYTMGWYRQAPGKERELVAAITSSGGRTYYADSVKGRFSISRDNAKNTVFLQMNSLKPEDTAVYYCATVYAKWKQFDSWGQGTQVNVSS”, with “high polyreactivity”.
Then “QVQLVESGGGLVQAGGSLRFICAASGRTFDWYAMGWYRPAPGKERELVAGNSWSGGSTYYADSVKGRFTISRDNAKNTVYLQMNSLKPEDTAVYYCAAEYPFEIGYVYYYIDYDYWGQGTQVTVSS”, with “low polyreactivity”; and “QVQLVESGGGLVQAGGSLRFSCAACGSIFEFYALGWSSQAPGKERELVAAITWDDGSTYYADSVKGRFTISRDNATNTVYLQMNSLTPEDTAVYYCAADTYITSDLYVYAYYYWGQGTQVTVSS”, with “low polyreactivity”; and “QVQLVESGGGLVQAGGSLRFSCAASGFIFSAYAMGWYRPAPGKERELVAAITWNGGSTYYADSVKGRFTISRDNAKNTVYLQMNSLKPEDTAVYYCNAVIKQHYIKYSYWGQGTQVTVSS”, with “high polyreactivity”.
The same measure for “QVQLVESGGGLVQAGGSLRFSCAASGINFYFNAMGWYRQAPGKERELVAVITSGGSTNYADSVKGRFTISRDNAKNTVYLQMNSLKPEDTAVYYCATDKSYSSWSAQYVYWGQGTQVTVSS”: “low polyreactivity”; for “QVQLVESGGGLVQAGGSLRFSCAASGITIRFYAMGWYRQAPGKERELVAAITRGGSTTYAHSVKGRFTISRDNAKNTVYLQMNSLKPEDTEVSYCNAQYQSGYYTSYPDRFDTWGQGTQVTVSS”: “low polyreactivity”; for “QVQLVESGGGLVQAGGSLRFSCAASGNTFYQYAMGWYRQAPGKERELVAAIVWSGGTTYYADSVKGRFTISRDNAKNTVYLQMTSLKPEDTAVYYCNADYDRGPYDYDSWGQGTQVTVSS”: “low polyreactivity”.
With “QVQLVESGGGLVQAGGSLRFSCAASGRIFGDYAMGWYRLAPGKERELVAAISWSDGSTYYADSVKGRFTISRDNAKNTVYLQMNSLKPEDTAVYYCAASYWDTEPGYREYDYWGQGTQVTVSS”, the “polyreactivity (PSR sort gate)” value is “low polyreactivity”.
Then “QVQLVESGGGLVQAGGSLRFSCAASGRIFQYNAMGWYRQAPGKERELVASITSGVRTYYADSVKGRFTISRDNAKNTVYLQMNSLKPEDTAVYYCNAYSGGQYDYCGQGTQVTVSS”, with “high polyreactivity”; and “QVQLVESGGGLVQAGGSLRFSCAASGRTFFGYAMGWYRQAPGKERELVAAISRGGTTHYADSVKGRFTISRDNAKNTVYLQMNSLKPEDTAVYYCAADGYPYIWSGIEYDYWGQGTQVTVSS”, with “high polyreactivity”.
Turning to “QVQLVESGGGLVQAGGSLRFSCAASGRTFGINAMGWYRQAPGKERELVAVITFGDGGTYYADSVKGRFTISRDNAKNTVYLQMNSLNPEDTAVYYCSTDYQSTSVWGGHFVINPYDYWGQGTQVTVSS”, the “polyreactivity (PSR sort gate)” value was “low polyreactivity”.
Then “QVQLVESGGGLVQAGGSLRFSCAASGRTFTYYAMGWYRQAPGKERELVASIRKSGASTYYADSVKGRFTISRDKAKNTVYLQMNSLKPEETAVYYCNTAKGHGRYEYWGQGSQVTVSS”, with “high polyreactivity”; and “QVQLVESGGGLVQAGGSLRFSCAASGRTFYRNVMGWYRQAPGKERELVAVITSGGSTNYADSVKGRFTISRDNAQNTVYLQMNSLKPEDTAVYYCNTALSSRSNKMYYWGQGTQVTVSS”, with “high polyreactivity”.
Then “QVQLVESGGGLVQAGGSLRFSCAASGRTLVYNGMGWYRPAPGKERELVAAITTDGGDTYYADSVKGRFTISRDNAKNTVYLQMDSLKPEDTAVYYCAADYVALYYWYDYWGQGTQVTVSS”, with “low polyreactivity”.
Then “QVQLVESGGGLVQAGGSLRFSCAASGSIFDRYAMGWYRQAPGKERELVAAITYSGGSTYYADSVKGRFTISRDNAKNTVYLQMNSLKPEDTAVYYCATETYPQGRYYQSYDYWGQGTQVTVSS”, with “low polyreactivity”; and “QVQLVESGGGLVQAGGSLRFSCAASGSIFQPYAMGWSRQAPGKERAFVAAISRSGGITYYADSVKGRFTISRDNAKNTVYLQMNSLKPEDTAVYYCAADYILWKGSNSYYYAGYYYWGQGTQVTVSS”, with “low polyreactivity”; and “QVQLVESGGGLVQAGGSLRFSCAASGSIFSSYDMGWYRQAPGKERELVAAITRGGTTNYADSVKGRFTISRDNAKNTVYLQMNSLKPEDTAVYYCNVAYGLLGISPGGDYWGQGTQVTVSS”, with “low polyreactivity”.
For the sequence “QVQLVESGGGLVQAGGSLRFSCAASGSILYGYAIGWYRQAPGQETELVAAIRLTGGSTYYADSVKGRFTISRDNAKNTVYLQMNSLKPEDTAVYYCAAEYNLRNYWGDYWGQGTLVTVSS”, the “polyreactivity (PSR sort gate)” value is recorded as “low polyreactivity”.
The same measure for “QVQLVESGGGLVQAGGSLRFSCAASGSISSQYGMGWYRQEPGKVRELVATIRDGGPTNYADSVKGRFTISRDNAKYTVYLQMNSLKPEDTAVYSCAALYWYYYTWPLYDYWGQGTQVTVSS”: “low polyreactivity”; for “QVQLVESGGGLVQAGGSLRFSCAASGSTFKRYTMGWYRQAPGKERELVAAISTSSGSTYYADSVKGRFTISRDNAKNSVYLQMHSLKPEDTAVYYCAAVRLRQTYPKYNYWGQGTQVTVSS”: “high polyreactivity”; for “QVQLVESGGGLVQAGGSLRFSCAASGSTFTTNVMGWYRQAPGKERELVAAISHRGGSTYYADSVKGRFTMSRDNAKNTVYLQMNSLKPEDTAVYYCAAPGWERYGYWGQGTQVTVSS”: “low polyreactivity”.
For “QVQLVESGGGLVQAGGSLRFSCAASGSTFYLYDMGWYRQAPGQERELVAVISWSGGSTSYADSVKGRFTISRDNAKNTIYLQMYSLKPEDTAVYYCTTDFYHWGQGTQVTVSS”, the “polyreactivity (PSR sort gate)” value is “low polyreactivity”.
Then “QVQLVESGGGLVQAGGSLRFSCAASGYIFSLNGRGWYRQAPGKERELVAAISSSGGRTYYADSVKGRFTISRDNAKNTVYLQMNSLKPEDTAVYYCAAEVYLSTYYQDMNYWGQGTQVTVSS”, with “high polyreactivity”.
